# Source: PMC4652773, “Functional significance of protein assemblies predicted by the crystal structure of the restriction endonuclease BsaWI”
# T1: BsaWI E128A (UniProt Q6UQ65 1-272, E128A)
# T1 sequence: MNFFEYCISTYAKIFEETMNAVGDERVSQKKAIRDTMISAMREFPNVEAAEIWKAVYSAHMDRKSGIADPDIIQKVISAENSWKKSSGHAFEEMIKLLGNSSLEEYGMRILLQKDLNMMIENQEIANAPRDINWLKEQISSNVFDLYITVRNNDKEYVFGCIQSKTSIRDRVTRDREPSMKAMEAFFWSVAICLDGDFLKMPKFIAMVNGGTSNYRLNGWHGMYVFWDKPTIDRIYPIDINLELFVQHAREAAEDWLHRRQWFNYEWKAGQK
# T2: BsaWI E128A&R130A (UniProt Q6UQ65 1-272, E128A;R130A)
# T2 sequence: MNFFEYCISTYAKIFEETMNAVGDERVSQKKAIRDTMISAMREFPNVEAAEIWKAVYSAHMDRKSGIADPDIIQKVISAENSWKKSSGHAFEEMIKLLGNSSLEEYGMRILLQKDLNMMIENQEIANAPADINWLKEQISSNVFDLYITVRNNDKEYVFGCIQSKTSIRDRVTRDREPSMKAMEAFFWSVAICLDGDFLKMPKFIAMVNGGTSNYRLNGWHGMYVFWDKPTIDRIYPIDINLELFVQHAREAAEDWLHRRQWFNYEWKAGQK
# T3: BsaWI K85A (UniProt Q6UQ65 1-272, K85A)
# T3 sequence: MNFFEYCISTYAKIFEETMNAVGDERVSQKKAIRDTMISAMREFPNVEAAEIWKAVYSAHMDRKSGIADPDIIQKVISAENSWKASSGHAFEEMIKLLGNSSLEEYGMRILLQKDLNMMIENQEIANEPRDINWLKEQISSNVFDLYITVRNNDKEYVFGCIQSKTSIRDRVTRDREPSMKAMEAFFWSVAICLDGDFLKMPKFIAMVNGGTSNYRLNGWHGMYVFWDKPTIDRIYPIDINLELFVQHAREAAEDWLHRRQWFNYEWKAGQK
# T4: BsaWI R259A&W262A (UniProt Q6UQ65 1-272, R259A;W262A)
# T4 sequence: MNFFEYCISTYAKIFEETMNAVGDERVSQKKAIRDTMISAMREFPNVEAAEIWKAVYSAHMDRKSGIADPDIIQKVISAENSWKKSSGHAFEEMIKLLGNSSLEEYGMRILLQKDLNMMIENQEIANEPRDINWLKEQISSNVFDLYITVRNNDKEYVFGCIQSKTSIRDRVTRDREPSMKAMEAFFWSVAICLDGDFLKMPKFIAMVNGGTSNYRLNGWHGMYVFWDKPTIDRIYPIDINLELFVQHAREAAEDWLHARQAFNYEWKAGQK
# T5: BsaWI D145A (UniProt Q6UQ65 1-272, D145A)
# T5 sequence: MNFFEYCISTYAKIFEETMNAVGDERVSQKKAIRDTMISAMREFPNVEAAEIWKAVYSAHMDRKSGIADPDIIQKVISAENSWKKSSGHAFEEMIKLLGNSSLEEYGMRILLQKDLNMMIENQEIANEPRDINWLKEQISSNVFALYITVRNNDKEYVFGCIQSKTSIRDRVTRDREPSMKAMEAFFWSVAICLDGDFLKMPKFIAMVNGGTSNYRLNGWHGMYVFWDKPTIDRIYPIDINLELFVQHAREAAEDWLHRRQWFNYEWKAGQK
# T6: BsaWI D175A (UniProt Q6UQ65 1-272, D175A)
# T6 sequence: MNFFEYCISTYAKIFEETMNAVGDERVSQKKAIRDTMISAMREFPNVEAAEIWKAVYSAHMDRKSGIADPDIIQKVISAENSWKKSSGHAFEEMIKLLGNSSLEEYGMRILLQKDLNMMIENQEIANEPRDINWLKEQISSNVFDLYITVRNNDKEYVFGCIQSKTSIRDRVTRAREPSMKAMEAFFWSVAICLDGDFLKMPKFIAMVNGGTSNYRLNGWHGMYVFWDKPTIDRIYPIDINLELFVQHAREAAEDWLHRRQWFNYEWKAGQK
# T7: BsaWI E128A&W262A (UniProt Q6UQ65 1-272, E128A;W262A)
# T7 sequence: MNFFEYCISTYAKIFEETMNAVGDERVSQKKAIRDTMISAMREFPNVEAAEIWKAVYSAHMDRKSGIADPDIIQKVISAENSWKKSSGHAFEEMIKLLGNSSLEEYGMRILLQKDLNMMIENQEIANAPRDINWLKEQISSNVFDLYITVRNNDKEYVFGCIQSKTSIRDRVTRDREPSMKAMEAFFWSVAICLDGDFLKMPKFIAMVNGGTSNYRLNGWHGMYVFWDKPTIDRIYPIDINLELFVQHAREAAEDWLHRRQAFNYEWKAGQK
# B1: SP (dsDNA)
# DNA 1: GCCTTTCGGTTTACCGGTGTCATTCCGCTG
# DNA 2: CAGCGGAATGACACCGGTAAACCGAAAGGC
# What was measured:
# Test in all cases: EMSA; 5 mM Ca2+; EMSA: 40 mM Tris-acetate pH 8.3, 0.1 mg/ml BSA, 10% glycerol, 5 mM CaCl2 or 0.1 mM EDTA, 1 nM DNA, room temperature, 15 min
# BsaWI E128A = target: T1, BsaWI E128A; details: protein: recombinant; chain copies: 2; label: 33P; blunt
# BsaWI E128A&R130A = target: T2, BsaWI E128A&R130A; details: protein: recombinant; chain copies: 2; label: 33P; blunt
# BsaWI K85A = target: T3, BsaWI K85A; details: protein: recombinant; chain copies: 4; label: 33P; blunt
# BsaWI R259A&W262A = target: T4, BsaWI R259A&W262A; details: protein: recombinant; chain copies: 2; label: 33P; blunt
# BsaWI D145A = target: T5, BsaWI D145A; details: protein: recombinant; chain copies: 4; label: 33P; blunt
# BsaWI D175A = target: T6, BsaWI D175A; details: protein: recombinant; chain copies: 4; label: 33P; blunt
# BsaWI E128A&W262A = target: T7, BsaWI E128A&W262A; details: protein: recombinant; chain copies: 2; label: 33P; blunt
binder,measurement,setting,value
B1,Kd,BsaWI E128A,2.19 ± 0.4 nM
same,Kd,BsaWI E128A&R130A,2.1 ± 0.5 nM
same,Kd,BsaWI K85A,229 ± 9.1 nM
same,Kd,BsaWI R259A&W262A,2.6 ± 0.6 nM
same,Kd,BsaWI D145A,17 ± 4.7 nM
same,Kd,BsaWI D175A,6.1 ± 2.3 nM
same,Kd,BsaWI E128A&W262A,2.7 ± 0.7 nM
